Measurements as given in article PMC11390915, “Histones and histone variant families in prokaryotes” (Nature Communications, 2024).

Biological target: the molecule itself
Assay: crystal structure; HTkC at 4.0 mg/mL in 50 mM Tris-HCl pH 7.0, 100 mM KCl, 10% glycerol; sitting drop vapor diffusion, reservoir 0.01 M trisodium citrate, 33% (w/v) PEG 6000; space group P2(1)2(1)2(1), 1.84 Å; four monomers in the asymmetric unit

B1: face-to-face (FtF) histone from Thermococcus kodakarensis (HTkC) (natural protein)
chain: MAEMLVKSKVKEFVKSVDPEMRVSPEFYDALEAEVKALVEKAIKRAQAEGRKTLYARHV
notes: Face-to-face (FtF) histone HTkC of Thermococcus kodakarensis, product of gene TK1040; synthesized gene cloned into pET30b (plasmid pRD503); The purification used heat, heparin and SEC only, so the protein is probably untagged (surmised); Oligonucleotides for cloning are in the Supplementary Information; also called FtF histone HTkC; TK1040; source: E. coli BL21(DE3)pLysS, purified (heating at 70 …)
  stoichiometry N: 4
